Measured values reported in patent publication US20240293512A1 (HANMI PHARM, published 2024).
Bridge positions count the residues as written; N and C are the ends. Square brackets hold non-standard residues; d marks the D form. Ends that are not written are not given here. * marks the point of attachment. Acetyl(2-(4-imidazolyl)) = O=C(Cc1c[nH]cn1)*; Aib = CC(C)(N)C(=O)O

T1: human GIP receptor (human, UniProt P48546 22-466)
T1 sequence (looked up): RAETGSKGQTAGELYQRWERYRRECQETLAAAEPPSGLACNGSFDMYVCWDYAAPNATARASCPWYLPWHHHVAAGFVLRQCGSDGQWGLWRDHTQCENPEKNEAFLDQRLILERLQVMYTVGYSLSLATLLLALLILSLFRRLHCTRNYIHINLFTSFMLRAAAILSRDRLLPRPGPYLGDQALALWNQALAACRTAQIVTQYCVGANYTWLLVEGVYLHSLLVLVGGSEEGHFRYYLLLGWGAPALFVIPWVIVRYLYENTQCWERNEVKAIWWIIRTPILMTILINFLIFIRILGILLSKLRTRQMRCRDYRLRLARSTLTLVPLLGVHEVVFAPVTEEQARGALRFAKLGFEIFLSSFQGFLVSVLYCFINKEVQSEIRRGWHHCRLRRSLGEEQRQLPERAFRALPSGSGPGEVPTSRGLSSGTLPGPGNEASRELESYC


Columns and labels:
Assay in all cases: cell-based or functional assay
[1] = target: T1, human GIP receptor
[2] = target: human GCG receptor (human, UniProt P47871 26-477)
Sequence of human GCG receptor (P47871 26-477): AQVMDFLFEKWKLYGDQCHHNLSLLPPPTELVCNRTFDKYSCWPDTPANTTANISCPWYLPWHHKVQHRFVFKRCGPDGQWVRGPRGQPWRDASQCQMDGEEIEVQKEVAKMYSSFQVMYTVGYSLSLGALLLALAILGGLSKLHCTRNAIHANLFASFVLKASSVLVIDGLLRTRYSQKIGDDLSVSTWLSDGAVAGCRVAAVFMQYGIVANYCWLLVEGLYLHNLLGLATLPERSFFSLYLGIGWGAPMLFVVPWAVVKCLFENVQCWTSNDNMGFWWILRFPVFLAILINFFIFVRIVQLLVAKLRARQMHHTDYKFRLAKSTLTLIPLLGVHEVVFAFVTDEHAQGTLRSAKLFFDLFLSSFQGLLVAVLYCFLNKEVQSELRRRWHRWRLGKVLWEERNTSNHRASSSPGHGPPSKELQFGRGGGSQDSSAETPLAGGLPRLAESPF

[3] = target: human GLP-1 receptor (human, UniProt P43220 24-463)

| Binder | In vitro activity compared with native peptide (%) vs GIP (cAMP EC50) [1] | In vitro activity compared with native peptide (%) vs Glucagon (cAMP EC50) [2] | In vitro activity compared with native peptide (%) vs GLP-1 (cAMP EC50) [3] |
| --- | --- | --- | --- |
| [Acetyl(2-(4-imidazolyl))][Aib]EGTFTSDYSIAMDEIHQKDFVNWLLAQKC (bridge 16-20) [triple agonist of SEQ ID NO: 90] | < 0.1% | < 0.1% | 7.4% |
| Y[Aib]QGTFTSDYSKYLDEKRAKEFVQWLLDHCPSSGQPPPS (bridge 16-20) [triple agonist of SEQ ID NO: 96] | 5.2% | 195% | 34.4% |
| H[Aib]EGTFTSDYSIAMDEIHQKDFVDWLLAEKC (bridge 16-20) [triple agonist of SEQ ID NO: 80] | 0.1% | 0% | 8.1% |
| {Acetyl(2-(4-imidazolyl))}-[Aib]QGTFTSDYSKYLDECRAKEFVQWLLDHHPSSGQPPPS (bridge 15-19) [triple agonist of SEQ ID NO: 73] | 3% | 5.4% | 22.6% |
| {Acetyl(2-(4-imidazolyl))}-[Aib]QGTFTSDYSKCLDEKRAKEFVQWLLDHHPSSGQPPPS (bridge 15-19) [triple agonist of SEQ ID NO: 74] | 1% | 0.9% | 12.9% |
| [Acetyl(2-(4-imidazolyl))][Aib]QGTFTSDYSKYLDEKRQKEFVNWLLAQKC (bridge 16-20) [triple agonist of SEQ ID NO: 93] | 0.7% | 0.3% | 5.7% |
| [Acetyl(2-(4-imidazolyl))][Aib]QGTFTSDYSIAMDEIHQKDFVNWLLAQKC (bridge 16-20) [triple agonist of SEQ ID NO: 92] | 0.4% | < 0.1% | 0.8% |
| [Acetyl(2-(4-imidazolyl))][Aib]QGTFTSDYSIAMDEIHQKDFVNWLLAQC (bridge 16-20) [triple agonist of SEQ ID NO: 85] | 0.3% | < 0.1% | 4.3% |
| [Acetyl(2-(4-imidazolyl))][Aib]QGTFTSDYSKYLDEKRQKEFVNWLLAQC (bridge 16-20) [triple agonist of SEQ ID NO: 86] | 0.2% | 0.4% | 28.4% |
| [Acetyl(2-(4-imidazolyl))][Aib]QGTFTSDYSKYLDEKRQKEFVQWLLDTKC (bridge 16-20) [triple agonist of SEQ ID NO: 89] | < 0.1% | 0.7% | 7.1% |
| [Acetyl(2-(4-imidazolyl))][Aib]EGTFTSDYSIAMDEIHQKDFVDWLLAEC (bridge 16-20) [triple agonist of SEQ ID NO: 84] | < 0.1% | < 0.1% | 4.2% |
| [Acetyl(2-(4-imidazolyl))][Aib]QGTFTSDYSKYLDEKRQKEFVQWLLNTC (bridge 16-20) [triple agonist of SEQ ID NO: 81] | < 0.1% | 0.3% | 7.8% |
| [Acetyl(2-(4-imidazolyl))][Aib]QGTFTSDYSIAMDEIHQKDFVNWLLNTKC (bridge 16-20) [triple agonist of SEQ ID NO: 94] | < 0.1% | < 0.1% | 0.5% |
| Y[Aib]QGTFTSDYSKYLDEKRAKDFVQWLLDHHPSSGQPPPSC (bridge 16-20) [triple agonist of SEQ ID NO: 76] | 11.7% | 47.6% | 10.3% |
| [Acetyl(2-(4-imidazolyl))][Aib]EGTFTSDYSIAMDEIHQKDFVNWLLAQC (bridge 16-20) [triple agonist of SEQ ID NO: 83] | 0.4% | 1.3% | 47.3% |
| Y[Aib]QGTFTSDYSKYLDEKRAKEFVQWLLCHHPSSGQPPPS (bridge 16-20) [triple agonist of SEQ ID NO: 95] | < 0.1% | 0.4% | 2.1% |
| [Acetyl(2-(4-imidazolyl))][Aib]QGTFTSDYSKYLDEKRQKEFVQWLLDTC (bridge 16-20) [triple agonist of SEQ ID NO: 82] | < 0.1% | 1.1% | 9.5% |
| H[Aib]QGTFTSDYSKYLDEKRQKEFVQWLLDTKC (bridge 16-20) [triple agonist of SEQ ID NO: 78] | 0.12% | 14% | 51% |
| H[Aib]QGTFTSDVSKYLDGQAAQEFVAWLLAGGGPSSGAPPPSC [triple agonist of SEQ ID NO: 10] | < 0.1% | < 0.1% | 46% |
| Y[Aib]QGTFTSDYSKYLDEKAAKDFVQWLLDHHPSSGQPPPSC (bridge 16-20) [triple agonist of SEQ ID NO: 77] | 35.5% | 12.2% | 38.7% |
| H[Aib]QGTFTSDVSKYLDGQAAQEFVAWLLAGC [triple agonist of SEQ ID NO: 9] | < 0.1% | 0.13% | 32.1% |
| H[Aib]QGTFTSDVSKYLDGQAAQEFVAWLLKGC [triple agonist of SEQ ID NO: 8] | < 0.1% | 0.1% | 14.2% |
| [Acetyl(2-(4-imidazolyl))][Aib]EGTFTSDYSIAMDEIHQKDFVDWLLAEKC (bridge 16-20) [triple agonist of SEQ ID NO: 91] | 0.3% | 16.8% | 31.9% |
| [Acetyl(2-(4-imidazolyl))][Aib]QGTFTSDYSKYLDEKRQKEFVQWLLNTKC (bridge 16-20) [triple agonist of SEQ ID NO: 88] | < 0.1% | 0.3% | 9.6% |
| [Acetyl(2-(4-imidazolyl))][Aib]QGTFTSDYSIAMDEIHQKDFVNWLLNTC (bridge 16-20) [triple agonist of SEQ ID NO: 87] | < 0.1% | < 0.1% | 0.9% |
| H[Aib]EGTFTSDYSIAMDEIHQKDFVNWLLAQKC (bridge 16-20) [triple agonist of SEQ ID NO: 79] | 1.4% | 4.9% | 41.5% |
| Y[Aib]QGTFTSDYSKYLDEKAAKEFVQWLLDHHPSSGQPPPSC (bridge 16-20) [triple agonist of SEQ ID NO: 75] | 18% | 8.5% | 35.1% |
